This sample holds only a part of the variants without activity.
Key:
[1] = system: biotinyl-Met-oxazolone; assay: self-aminoacylation, catalytic enhancement (BMO) (fold over background); higher = more active; k-Seq, kA / k0A0; sequences stand for … in GGGAAUGGAUCCACAUCUACGAAUUC…UUCACUGCAGACUUGACGAAGCUG
In short: (§1)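 Mutagenized RNA pools (0.43 μM; 21-nt variable region) were treated with 2–1250 μM of each biotinyl-aminoacyl-oxazolone. Conditions were 50 μL HEPES/NaCl/KCl/MgCl2/CaCl2 buffer, 5% acetonitrile, pH 6.9–7.0, room temperature, 90 minutes. Catalytic enhancement, the median kA relative to the uncatalyzed rate, was derived from streptavidin capture, qPCR and Illumina sequencing.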

[2] = system: biotinyl-Ile-oxazolone; assay: self-aminoacylation, catalytic enhancement (BIO) (fold over background); higher = more active; k-Seq, kA / k0A0; sequences stand for … in GGGAAUGGAUCCACAUCUACGAAUUC…UUCACUGCAGACUUGACGAAGCUG
In short: as §1

[3] = system: biotinyl-Trp-oxazolone; assay: self-aminoacylation, catalytic enhancement (BWO) (fold over background); higher = more active; k-Seq, kA / k0A0; sequences stand for … in GGGAAUGGAUCCACAUCUACGAAUUC…UUCACUGCAGACUUGACGAAGCUG
In short: as §1

[4] = system: biotinyl-Phe-oxazolone; assay: self-aminoacylation, catalytic enhancement (BFO) (fold over background); higher = more active; k-Seq, kA / k0A0; sequences stand for … in GGGAAUGGAUCCACAUCUACGAAUUC…UUCACUGCAGACUUGACGAAGCUG
In short: as §1

[5] = system: biotinyl-Leu-oxazolone; assay: self-aminoacylation, catalytic enhancement (BLO) (fold over background); higher = more active; k-Seq, kA / k0A0; sequences stand for … in GGGAAUGGAUCCACAUCUACGAAUUC…UUCACUGCAGACUUGACGAAGCUG
In short: as §1

[6] = system: biotinyl-Val-oxazolone; assay: self-aminoacylation, catalytic enhancement (BVO) (fold over background); higher = more active; k-Seq, kA / k0A0; sequences stand for … in GGGAAUGGAUCCACAUCUACGAAUUC…UUCACUGCAGACUUGACGAAGCUG
In short: as §1

Row | Sequence | self-aminoacylation [1] | self-aminoacylation [2] | self-aminoacylation [3] | self-aminoacylation [4] | self-aminoacylation [5] | self-aminoacylation [6]
1 | AAGUUUUGUAAUAGUCGCAAG [Fam3.1 aminoacylation ribozyme variant] | 1.53 | 1.64 | 1.84 | 2.1 | 1.5 | 1.55
2 | CCACAAUGCAAGCAAUCGGUC [Fam1B.1 aminoacylation ribozyme variant] | 1.22 | 1.48 | 0.93 | 1.02 | 1.01 | 1.41
3 | CUACUUCAAACAAUCGAACUG [Fam1A.1 aminoacylation ribozyme variant] | 0.617 | 0.683 | 0.468 | 0.805 | 0.595 | 0.595
4 | CUACACUUCAAGCAAUCGGGC [Fam1B.1 aminoacylation ribozyme variant] | 1.95 | 1.48 | 2.02 | 0.999 | 1.27 | 1.42
5 | CCACACUUCUAGCAAUUGGUC [Fam1B.1 aminoacylation ribozyme variant] | 0.638 | 0.611 | 0.401 | 0.539 | 0.636 | 0.687
6 | CUACUUCGAACCAUCGGUCUG [Fam1A.1 aminoacylation ribozyme variant] | 0.813 | 0.723 | 0.463 | 0.458 | 0.61 | 0.779
7 | AAUUUCGCUAAUAGUCGCAAG [Fam3.1 aminoacylation ribozyme variant] | 1.94 | 2.19 | 1.9 | 2.64 | 2.24 | 1.88
8 | AUUAGCCUGGUAAUCGAGUGA [Fam2.1 aminoacylation ribozyme variant] | 11.6 | 5.28 | 12.8 | 75.9 | 13.3 | 5.07
9 | GUACACCUAGGUCAUCGGGUG [Fam2.2 aminoacylation ribozyme variant] | 2.32 | 2.54 | 4.08 | 18.5 | 2.69 | 2.53
10 | AUUACCCCGGUCGUCGAGUGA [Fam2.1 aminoacylation ribozyme variant] | 1.39 | 0.914 | 0.938 | 2.06 | 1.41 | 1
11 | ACUACCCUGGUCAUCCAGUGA [Fam2.1 aminoacylation ribozyme variant] | 5.05 | 3.37 | 5.86 | 21.2 | 5.01 | 3.27
12 | AUUACCCUGGACACCGAGUGA [Fam2.1 aminoacylation ribozyme variant] | 4.14 | 2.15 | 3.99 | 4.62 | 3.5 | 1.83
13 | CCACACUUCUAACAAUCGGUC [Fam1B.1 aminoacylation ribozyme variant] | 0.619 | 0.797 | 0.618 | 0.614 | 0.69 | 0.798
14 | AUUACCCUGGUAAUGGAGUGA [Fam2.1 aminoacylation ribozyme variant] | 8.43 | 3.32 | 9.08 | 55.9 | 8.53 | 3.73
15 | CUUACCCUGGUGAUCGAGUGA [Fam2.1 aminoacylation ribozyme variant] | 4.51 | 2.65 | 5.52 | 14.5 | 4.36 | 2.81
16 | AUUUACCUAGGUCAUCGAGUG [Fam2.2 aminoacylation ribozyme variant] | 9.76 | 6.62 | 5.73 | 18.5 | 12.7 | 5.4
17 | AGUCACAUAGGUCAUCGGGUG [Fam2.2 aminoacylation ribozyme variant] | 8.54 | 7.04 | 9.51 | 63.6 | 10.2 | 6.38
18 | AAGUUUGCAAAUAGUCGAAAG [Fam3.1 aminoacylation ribozyme variant] | 0.974 | 0.956 | 1.04 | 1.58 | 0.913 | 0.824
19 | AUCACCCUCGUCAUCGAGUGA [Fam2.1 aminoacylation ribozyme variant] | 3.54 | 2.12 | 3.31 | 19.7 | 3.13 | 2.36
20 | AUGUUUGCUAAGAGUCGCAAG [Fam3.1 aminoacylation ribozyme variant] | 1.35 | 1.35 | 1.68 | 2.16 | 1.39 | 1.28
21 | CUACUGCAAACAAUCGGUCUC [Fam1A.1 aminoacylation ribozyme variant] | 0.916 | 0.855 | 0.681 | 0.785 | 0.716 | 0.885
22 | AUUCACCCAGGUCAUCGGGCG [Fam2.2 aminoacylation ribozyme variant] | 3.77 | 2.72 | 2.97 | 18 | 4.5 | 2.62
23 | CCACACGUCAAGAAAUCGGUC [Fam1B.1 aminoacylation ribozyme variant] | 1.17 | 1.28 | 0.951 | 1.01 | 1.28 | 1.44
24 | AGCUUUGCUAAUAGUCGCAAG [Fam3.1 aminoacylation ribozyme variant] | 3.31 | 2.95 | 3.68 | 9.09 | 3.02 | 2.4
25 | AUUCACCUAGGUGAUCGGGUG [Fam2.2 aminoacylation ribozyme variant] | 2.81 | 2.52 | 3.34 | 16.6 | 3.27 | 2.62
26 | AAGUUUGCUAAUAUUCGCAAA [Fam3.1 aminoacylation ribozyme variant] | 1.75 | 1.2 | 2.04 | 0.994 | 1.25 | 1.32

Row | Sequence | self-aminoacylation [1] | self-aminoacylation [2] | self-aminoacylation [3] | self-aminoacylation [4] | self-aminoacylation [5] | self-aminoacylation [6]
27 | AUUACCAUGGUCAUAGAGUGA [Fam2.1 aminoacylation ribozyme variant] | 8.44 | 4.13 | 10 | 37.6 | 8.72 | 3.51
28 | CUACUACAAACAAUCAGUCUG [Fam1A.1 aminoacylation ribozyme variant] | 0.467 | 0.657 | 0.554 | 0.88 | 0.7 | 0.732
29 | CCACACUUUAAGCAAUCGGUA [Fam1B.1 aminoacylation ribozyme variant] | 0.722 | 0.788 | 0.553 | 0.889 | 0.63 | 0.95
30 | CCACACUUCAACCAAUCUGUC [Fam1B.1 aminoacylation ribozyme variant] | 0.419 | 0.426 | 0.369 | 0.77 | 0.377 | 0.607
31 | GCGUUUGCUAAUAGUCGCAAG [Fam3.1 aminoacylation ribozyme variant] | 2.34 | 2.09 | 4.24 | 4.9 | 2.65 | 2.05
32 | AUUCUCCUGGGUCAUCGGGUG [Fam2.2 aminoacylation ribozyme variant] | 9.61 | 6.05 | 9.42 | 73.6 | 10.8 | 7.53
33 | GAGUUUGCUAAUAGUCGGAAG [Fam3.1 aminoacylation ribozyme variant] | 1.6 | 1.38 | 4.68 | 11.6 | 1.16 | 1.38
34 | AUUCACCUAGGUCAUCUUGUG [Fam2.2 aminoacylation ribozyme variant] | 1.13 | 0.835 | 0.594 | 1.37 | 1.18 | 1.04
35 | AGUCAUCUAGGUCAUCGGGUG [Fam2.2 aminoacylation ribozyme variant] | 7.32 | 5.24 | 9.27 | 53.9 | 7.92 | 5.47
36 | AUGGACCUAGGUCAUCGGGUG [Fam2.2 aminoacylation ribozyme variant] | 3.77 | 3.46 | 4.36 | 22 | 4.55 | 3.04
37 | CUUCACCUAGGUCAUCGGAUG [Fam2.2 aminoacylation ribozyme variant] | 0.842 | 1.06 | 0.921 | 1 | 0.891 | 1.18
38 | AUUCACUUUGGUCAUCGGGUG [Fam2.2 aminoacylation ribozyme variant] | 8.05 | 4.75 | 7.2 | 65.4 | 9.51 | 4.71
39 | CCACACUUCCAGCAGUCGGUC [Fam1B.1 aminoacylation ribozyme variant] | 1.14 | 1.24 | 0.613 | 0.659 | 1.11 | 1.29
40 | AAUACACUGGUCAUCGAGUGA [Fam2.1 aminoacylation ribozyme variant] | 4.13 | 3.65 | 6.47 | 8.92 | 4.56 | 3.4
41 | CCACACUUCAAGCCAUGGGUC [Fam1B.1 aminoacylation ribozyme variant] | 1.13 | 1.15 | 0.675 | 0.678 | 1.14 | 0.952
42 | CCACACUUAAAUCAAUCGGUC [Fam1B.1 aminoacylation ribozyme variant] | 0.589 | 0.829 | 0.868 | 0.699 | 0.787 | 0.914
43 | CCAGACUUCAAGCAAUCAGUC [Fam1B.1 aminoacylation ribozyme variant] | 0.826 | 1.04 | 5.08 | 12.6 | 1.03 | 0.837
44 | CUAGUUCAAACAAUCGCUCUG [Fam1A.1 aminoacylation ribozyme variant] | 0.827 | 0.832 | 0.844 | 0.847 | 0.798 | 0.934
45 | CAGUUUGCUAAUAGUAGCAAG [Fam3.1 aminoacylation ribozyme variant] | 1.58 | 1.26 | 1.65 | 2.46 | 1.5 | 1.04
46 | AUGCACCUAGGUCAUCGAGUG [Fam2.2 aminoacylation ribozyme variant] | 3.33 | 2.61 | 3.75 | 4.83 | 3.96 | 2.56
47 | CUACUUCAAACUAUUGGUCUG [Fam1A.1 aminoacylation ribozyme variant] | 0.897 | 0.995 | 0.501 | 0.825 | 0.92 | 0.869
48 | AAUCACCUAGGGCAUCGGGUG [Fam2.2 aminoacylation ribozyme variant] | 3.75 | 3.31 | 5.34 | 28 | 3.93 | 3.49
49 | CCACAUUUCAAGCAAUCGGUU [Fam1B.1 aminoacylation ribozyme variant] | 1.62 | 1.59 | 1.2 | 1.25 | 1.56 | 1.71
50 | AAGUUUGCGAAUAGUCCCAAG [Fam3.1 aminoacylation ribozyme variant] | 1.14 | 1.06 | 0.863 | 1.03 | 0.951 | 0.844
51 | AAUCACCUAGGUCAUCGGGAG [Fam2.2 aminoacylation ribozyme variant] | 1.89 | 1.67 | 1.55 | 1.94 | 1.51 | 2.17

From the supplement of paper PMC9233669
